B1: Intersectin-1, residues 1156 to 1213; numbered along this chain, Q15811 (parent)
chain: AVCQVIGMYDYTAQNDDELAFNKGQIINVLNKEDPDWWKGEVNGQVGLFPSNYVKLTT

From the Human Domainome abundance scans (Beltran et al. 2025) come the findings set out here.

± gives the uncertainty stated by the source.

In the data set the parent is B1. Kind of data set: abundance fitness (aPCA) (normalised: wild type 0, dead -1); higher = more abundant; growth selection in yeast, the domain comes from the species named. The note with it: Homo sapiens.
As to AVCQVIGMYDYGAQNDDELAFNKGQIINVLNKEDPDWWKGEVNGQVGLFPSNYVKLTT [T12G], the abundance fitness is -0.424 ± 0.086.

Consider AVCQVIGMYDYFAQNDDELAFNKGQIINVLNKEDPDWWKGEVNGQVGLFPSNYVKLTT [T12F], for which the abundance fitness is -0.39 ± 0.19.

For AVCQVIGMYDYLAQNDDELAFNKGQIINVLNKEDPDWWKGEVNGQVGLFPSNYVKLTT [T12L], the abundance fitness was -0.369 ± 0.095.

For the variant AVCQVIGMYDYKAQNDDELAFNKGQIINVLNKEDPDWWKGEVNGQVGLFPSNYVKLTT [T12K], the abundance fitness is -0.178 ± 0.18.

Take AVCQVIGMYDYQAQNDDELAFNKGQIINVLNKEDPDWWKGEVNGQVGLFPSNYVKLTT [T12Q]: the abundance fitness was -0.345 ± 0.18.

For AVCQVIGMYDYVAQNDDELAFNKGQIINVLNKEDPDWWKGEVNGQVGLFPSNYVKLTT [T12V], the abundance fitness is -0.165 ± 0.094.

Regarding AVCQVIGMYDYMAQNDDELAFNKGQIINVLNKEDPDWWKGEVNGQVGLFPSNYVKLTT [T12M], the abundance fitness is -0.168 ± 0.14.

For AVCQVIGMYDYYAQNDDELAFNKGQIINVLNKEDPDWWKGEVNGQVGLFPSNYVKLTT [T12Y], the abundance fitness was -0.289 ± 0.21.

As to AVCQVIGMYDYDAQNDDELAFNKGQIINVLNKEDPDWWKGEVNGQVGLFPSNYVKLTT [T12D], the abundance fitness was -0.203 ± 0.11.

For AVCQVIGMYDYNAQNDDELAFNKGQIINVLNKEDPDWWKGEVNGQVGLFPSNYVKLTT [T12N], the abundance fitness was 0.01 ± 0.16.

Take AVCQVIGMYDYWAQNDDELAFNKGQIINVLNKEDPDWWKGEVNGQVGLFPSNYVKLTT [T12W]: the abundance fitness is -0.629 ± 0.16.

AVCQVIGMYDYCAQNDDELAFNKGQIINVLNKEDPDWWKGEVNGQVGLFPSNYVKLTT [T12C]: the abundance fitness is -0.464 ± 0.16.

On to AVCQVIGMYDYIAQNDDELAFNKGQIINVLNKEDPDWWKGEVNGQVGLFPSNYVKLTT [T12I], for which the abundance fitness was -0.608 ± 0.17.

As to AVCQVIGMYDYHAQNDDELAFNKGQIINVLNKEDPDWWKGEVNGQVGLFPSNYVKLTT [T12H], the abundance fitness was -0.108 ± 0.19.

Consider AVCQVIGMYDYRAQNDDELAFNKGQIINVLNKEDPDWWKGEVNGQVGLFPSNYVKLTT [T12R], for which the abundance fitness is -0.072 ± 0.083.

Take AVCQVIGMYDYAAQNDDELAFNKGQIINVLNKEDPDWWKGEVNGQVGLFPSNYVKLTT [T12A]: the abundance fitness was -0.075 ± 0.092.

With AVCQVIGMYDYTNQNDDELAFNKGQIINVLNKEDPDWWKGEVNGQVGLFPSNYVKLTT [A13N], the abundance fitness was -0.839 ± 0.26.

For the variant AVCQVIGMYDYTLQNDDELAFNKGQIINVLNKEDPDWWKGEVNGQVGLFPSNYVKLTT [A13L], the abundance fitness is -0.903 ± 0.13.

With AVCQVIGMYDYTCQNDDELAFNKGQIINVLNKEDPDWWKGEVNGQVGLFPSNYVKLTT [A13C], the abundance fitness was -0.76 ± 0.21.

Consider AVCQVIGMYDYTYQNDDELAFNKGQIINVLNKEDPDWWKGEVNGQVGLFPSNYVKLTT [A13Y], for which the abundance fitness is -0.574 ± 0.2.

With AVCQVIGMYDYTTQNDDELAFNKGQIINVLNKEDPDWWKGEVNGQVGLFPSNYVKLTT [A13T], the abundance fitness is -0.336 ± 0.11.

Consider AVCQVIGMYDYTIQNDDELAFNKGQIINVLNKEDPDWWKGEVNGQVGLFPSNYVKLTT [A13I], for which the abundance fitness is -0.735 ± 0.26.

As to AVCQVIGMYDYTFQNDDELAFNKGQIINVLNKEDPDWWKGEVNGQVGLFPSNYVKLTT [A13F], the abundance fitness is -0.592 ± 0.34.

AVCQVIGMYDYTPQNDDELAFNKGQIINVLNKEDPDWWKGEVNGQVGLFPSNYVKLTT [A13P]: the abundance fitness was -0.059 ± 0.1.

AVCQVIGMYDYTMQNDDELAFNKGQIINVLNKEDPDWWKGEVNGQVGLFPSNYVKLTT [A13M]: the abundance fitness is -0.853 ± 0.18.

For AVCQVIGMYDYTDQNDDELAFNKGQIINVLNKEDPDWWKGEVNGQVGLFPSNYVKLTT [A13D], the abundance fitness is -0.944 ± 0.24.

As to AVCQVIGMYDYTEQNDDELAFNKGQIINVLNKEDPDWWKGEVNGQVGLFPSNYVKLTT [A13E], the abundance fitness is -0.822 ± 0.16.

For the variant AVCQVIGMYDYTWQNDDELAFNKGQIINVLNKEDPDWWKGEVNGQVGLFPSNYVKLTT [A13W], the abundance fitness was -0.746 ± 0.14.

Consider AVCQVIGMYDYTQQNDDELAFNKGQIINVLNKEDPDWWKGEVNGQVGLFPSNYVKLTT [A13Q], for which the abundance fitness was -0.676 ± 0.14.

AVCQVIGMYDYTSQNDDELAFNKGQIINVLNKEDPDWWKGEVNGQVGLFPSNYVKLTT [A13S]: the abundance fitness was -0.455 ± 0.1.

Regarding AVCQVIGMYDYTVQNDDELAFNKGQIINVLNKEDPDWWKGEVNGQVGLFPSNYVKLTT [A13V], the abundance fitness is -0.832 ± 0.11.

As for AVCQVIGMYDYTRQNDDELAFNKGQIINVLNKEDPDWWKGEVNGQVGLFPSNYVKLTT [A13R], the abundance fitness was -0.451 ± 0.089.

On to AVCQVIGMYDYTAQNADELAFNKGQIINVLNKEDPDWWKGEVNGQVGLFPSNYVKLTT [D16A], for which the abundance fitness was -0.232 ± 0.096.

With AVCQVIGMYDYTAQNMDELAFNKGQIINVLNKEDPDWWKGEVNGQVGLFPSNYVKLTT [D16M], the abundance fitness was -0.225 ± 0.11.

Turning to AVCQVIGMYDYTAQNEDELAFNKGQIINVLNKEDPDWWKGEVNGQVGLFPSNYVKLTT [D16E], the abundance fitness came to 0.059 ± 0.12.

AVCQVIGMYDYTAQNRDELAFNKGQIINVLNKEDPDWWKGEVNGQVGLFPSNYVKLTT [D16R]: the abundance fitness is -0.293 ± 0.074.

For AVCQVIGMYDYTAQNLDELAFNKGQIINVLNKEDPDWWKGEVNGQVGLFPSNYVKLTT [D16L], the abundance fitness is -0.3 ± 0.088.

AVCQVIGMYDYTAQNIDELAFNKGQIINVLNKEDPDWWKGEVNGQVGLFPSNYVKLTT [D16I]: the abundance fitness is -0.108 ± 0.13.

For AVCQVIGMYDYTAQNGDELAFNKGQIINVLNKEDPDWWKGEVNGQVGLFPSNYVKLTT [D16G], the abundance fitness is -0.121 ± 0.077.

Consider AVCQVIGMYDYTAQNQDELAFNKGQIINVLNKEDPDWWKGEVNGQVGLFPSNYVKLTT [D16Q], for which the abundance fitness is 0.115 ± 0.13.

As to AVCQVIGMYDYTAQNCDELAFNKGQIINVLNKEDPDWWKGEVNGQVGLFPSNYVKLTT [D16C], the abundance fitness is -0.166 ± 0.11.

Regarding AVCQVIGMYDYTAQNPDELAFNKGQIINVLNKEDPDWWKGEVNGQVGLFPSNYVKLTT [D16P], the abundance fitness was -0.259 ± 0.13.

Consider AVCQVIGMYDYTAQNSDELAFNKGQIINVLNKEDPDWWKGEVNGQVGLFPSNYVKLTT [D16S], for which the abundance fitness was -0.296 ± 0.089.

As for AVCQVIGMYDYTAQNYDELAFNKGQIINVLNKEDPDWWKGEVNGQVGLFPSNYVKLTT [D16Y], the abundance fitness is -0.588 ± 0.21.

As to AVCQVIGMYDYTAQNNDELAFNKGQIINVLNKEDPDWWKGEVNGQVGLFPSNYVKLTT [D16N], the abundance fitness is -0.302 ± 0.15.
